Data on nine molecules can be found in patent US20240352438A1, “MEANS AND METHODS FOR DETOXIFYING OCHRATOXIN A” (DSM Austria GmbH, priority 2021, published 2024).

B1: 70 (protein)
chain: MTTRTRILTAFLSLLAANACAADAAPAAPHTVVLRAARMFDGASGKLVDHPQLTIVGNKIVRIAQGDKAEVPAGAEVVDLGDATLLPGFIDAHVHLSGQSSDNWYGDFFDNMMRFPAEQALYGAYYARITLEAGFTSVRDVGSTDWVALGLRNAIDAGKVPGPRMLVSNYAVGSTGGHADLDPIPPHKLPLAGPLQGVCNGPEECRAAVRYQIKYGANVIKFMPSGGVLSLSDPVDAPELSQDEMNAVIGESHAWGRKVAAHAHGDKAAKMAVAAGVDSIEHGSFIEDDTLRAMKAKNVYLVPTISAIAHVEEKIGTFPPVIAEKGRAAAAHLRQTFRHAVQIGVPIALGTDAGVGAHGSNAREFRYMVENGLTPAQALLAGTANAARLLGTFDRVGTLEAGKLADVVAVPGNPIADITVTERPLFVMKDGVVVRRDAVR
modifications: exemplary polypeptide
B2: 71 (protein)
chain: B1 chain with L181Q, H264Q
modifications: exemplary polypeptide
B3: 72 (protein)
chain: B1 chain with L181Q, M223C
modifications: exemplary polypeptide
B4: 80 (protein)
chain: B1 chain with L181Q, A307G, V355A
modifications: exemplary polypeptide
B5: 49 (protein)
chain: B1 chain with T144A, L181Q
modifications: exemplary polypeptide
B6: 50 (protein)
chain: B1 chain with A171P, L181Q
modifications: exemplary polypeptide
B7: 73 (protein)
chain: B1 chain with L181Q, M223A
modifications: exemplary polypeptide
B8: 48 (protein)
chain: B1 chain with F109A, L181Q
modifications: exemplary polypeptide
B9: 77 (protein)
chain: B1 chain with L181Q, A307G, V311A
modifications: exemplary polypeptide

Substitutions are numbered along the chain they refer to. Where only a bound is given, the exact number is not on record here.

One data set in a line: OTA detoxification activity assay (specific activity, fluorescence reduction ex/em 390/450 nm). The format is biochemical. The settings on record: pH 6.0; SEQ ID NO: 1 = 100%. In short, it runs like this:
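Recombinant enzyme preparation with 200 ng/mL OTA in 100 mM sodium phosphate, at pH 6.0 and pH 7.5, 37° C. Degradation followed as the fall in fluorescence at ex/em 390/450 nm. Specific activity taken from the initial linear slope; one unit degrades 1 μmol OTA per min at a starting OTA of […].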
B1: the “Specific OTA detoxification activities in % compared to the enzyme of SEQ ID NO: 1, pH 6.0” value turned out to be 80%.

On to B2, for which the “Specific OTA detoxification activities in % compared to the enzyme of SEQ ID NO: 1, pH 6.0” value was found to be 32%.

For B3, the “Specific OTA detoxification activities in % compared to the enzyme of SEQ ID NO: 1, pH 6.0” value was 34%.

Regarding B4, the “Specific OTA detoxification activities in % compared to the enzyme of SEQ ID NO: 1, pH 6.0” value came to 7%.

With B5, the “Specific OTA detoxification activities in % compared to the enzyme of SEQ ID NO: 1, pH 6.0” value is recorded as 76%.

Turning to B6, the “Specific OTA detoxification activities in % compared to the enzyme of SEQ ID NO: 1, pH 6.0” value amounted to 81%.

For the molecule B7, the “Specific OTA detoxification activities in % compared to the enzyme of SEQ ID NO: 1, pH 6.0” value is listed as 20%.

Turning to B8, the “Specific OTA detoxification activities in % compared to the enzyme of SEQ ID NO: 1, pH 6.0” value is on record as 54%.

Turning to B9, the “Specific OTA detoxification activities in % compared to the enzyme of SEQ ID NO: 1, pH 6.0” value was 5%.

Staying with this data set, now noted: pH 7.5; SEQ ID NO: 1 = 100%.
Take B1: the “Specific OTA detoxification activities in % compared to the enzyme of SEQ ID NO: 1, pH 7.5” value came out at 77%.

With B2, the “Specific OTA detoxification activities in % compared to the enzyme of SEQ ID NO: 1, pH 7.5” value was 17%.

With B3, the “Specific OTA detoxification activities in % compared to the enzyme of SEQ ID NO: 1, pH 7.5” value worked out at 46%.

For the molecule B4, the “Specific OTA detoxification activities in % compared to the enzyme of SEQ ID NO: 1, pH 7.5” value is on record as 3%.

On to B5, for which the “Specific OTA detoxification activities in % compared to the enzyme of SEQ ID NO: 1, pH 7.5” value was determined as 179%.

As to B6, the “Specific OTA detoxification activities in % compared to the enzyme of SEQ ID NO: 1, pH 7.5” value is reported as 257%.

On to B7, for which the “Specific OTA detoxification activities in % compared to the enzyme of SEQ ID NO: 1, pH 7.5” value stood at 23%.

Consider B8, for which the “Specific OTA detoxification activities in % compared to the enzyme of SEQ ID NO: 1, pH 7.5” value came out at 102%.

For the molecule B9, the “Specific OTA detoxification activities in % compared to the enzyme of SEQ ID NO: 1, pH 7.5” value came to 3%.

Another data set in a line: Thermostability assay: residual OTA detoxification activity after 10 min incubation at 45-99° C. (T50). The conditions noted are these: 0.1 mg/mL protein in 20 mM Tris-HCl pH 7.5, residual OTA detoxification activity relative to 4° C. reference aliquot. In kind it is physicochemical. In a few lines:
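T50 marks the temperature range at which half the starting OTA-detoxifying activity is lost, versus an unheated 4 °C reference. Samples were 0.1 mg/mL purified protein in 20 mM Tris-HCl pH 7.5, exposed for 10 min to 45, 55, 65, 75, 80, 85, 90, 95 or 99 °C.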
Consider B1, for which the “T50 (temperature at which 50% of the initial activity was maintained)” value was less than 63.2 °C.

As for B2, the “T50 (temperature at which 50% of the initial activity was maintained)” value is 70.7-72.6 °C.

Regarding B3, the “T50 (temperature at which 50% of the initial activity was maintained)” value is 74.4-77.0 °C.

In the case of B4, the “T50 (temperature at which 50% of the initial activity was maintained)” value is 64.0-65.3 °C.

B5: the “T50 (temperature at which 50% of the initial activity was maintained)” value is 68-70 °C.

With B6, the “T50 (temperature at which 50% of the initial activity was maintained)” value was 64 °C.

Take B7: the “T50 (temperature at which 50% of the initial activity was maintained)” value is 74.4-77.0 °C.

As for B8, the “T50 (temperature at which 50% of the initial activity was maintained)” value was less than 63.2 °C.

Turning to B9, the “T50 (temperature at which 50% of the initial activity was maintained)” value was 65.3-66.9 °C.
